Kd, koff and kon data for 20 molecules are collected here from patent US7329737 (DYAX, dated 2008).

In this assay the target is T1, hK1 (human tissue kallikrein 1), recombinant (human, UniProt P06870 25-262).
T1 construct: Expressed in P. pastoris from KLK1 cDNA and purified; enzymatically active; also called KLK1; Recombinant (Pichia) Kallikrein
The assay can be described thus: SPR. (In general: Surface plasmon resonance follows binding to a sensor surface in real time, without labels.)

Changes are numbered by the printed parent chain.

B1: M0104-A12 (Fab, V domains shown)
VH: EVQLLESGGGLVQPGGSLRLSCAASGFTFSHYNMGWVRQAPGKGLEWVSRIGSSGGKTAYADSVKGRFTISRDNSKNTLYLQMNSLRAEDTAVYYCAKTNYDFWSGYLPNPNPYPLDYWGQGTLVTVSS
VL: DIQMTQSPSSLSASVGDRVTITCRASQSIGASLNWYQQKPQKAPKLLIYTASNLQSGVPSRFSGSGSGTDFTLTISSLLPEDFATYYCQQNYRGRTFGQGTKLEIKR
For the molecule B1, the Kd was found to be 3.66 nM, the koff came to 0.00246 s⁻¹ and the kon is 673000 M⁻¹ s⁻¹.

B2: M0132-H11 (Fab, V domains shown)
VH: EVQLLESGGGLVQPGGSLRLSCAASGFTFSHYQMHWVRQAPGKGLEWVSRIRSSGGATSYADSVKGRFTISRDNSKNTLYLQMNSLRAEDTAVYYCARGGGYSYYFDYWGQGTLVTVSS
VL: AQYELTQPPSASGTPGQRVTISCSGSSSNIGSNYVYWYQQLPGTAPKLLIYRNNQRPSGVPDRFSGSKSGTSASLAISGLRSEDEADYYCAAWDDSLSGHAVFGGGTQLTVLG
For B2, the Kd is 4.5 nM, the koff was determined as 0.00198 s⁻¹ and the kon stood at 440000 M⁻¹ s⁻¹.

B3: M0098-H04 (Fab, V domains shown)
VH: EVQLLESGGGLVQPGGSLRLSCAASGFTFSHYVMSWVRQAPGKGLEWVSRIYPSGGQTYYADSVKGRFTISRDNSKNTLYLQMNSLRAEDTAVYYCARGAGWFDPWGQGTLVTVSS
VL: AQSELTQPPSASGSPGQSLTISCTGGRRDIGNYNYVSWYQQHPGKAPRLIIYDVRKRPSGVPDRFSGSKSGNVAFLTVSGLQTDDEADYYCGSYTGTSNVFGSGTTVTVLG
Consider B3, for which the Kd turned out to be 5.53 nM, the off-rate constant (koff) is 0.00255 s⁻¹ and the kon was 461000 M⁻¹ s⁻¹.

B4: M0131-G03 (Fab, V domains shown)
VH: EVQLLESGGGLVQPGGSLRLSCAASGFTFSHYVMQWVRQAPGKGLEWVSSIYPSGGSTRYADSVKGRFTISRDNSKNTLYLQMNSLRAEDTAMYYCARFNVGFDLWGRGTLVTVSS
VL: B3 VL
Take B4: the Kd stood at 7.49 nM, the koff worked out at 0.00256 s⁻¹ and the kon was 341000 M⁻¹ s⁻¹.

B5: M0093-C02 (Fab, V domains shown)
VH: EVQLLESGGGLVQPGGSLRLSCAASGFTFSWYAMHWVRQAPGKGLEWVSWISPSGGQTKYADSVKGRFTISRDNSKNTLYLQMNSLRAEDTAVYYCARAKVLRYFDWLLGGDAFDIWGQGTMVTVSS
VL: DIQMTQSPGTLSLSPGDRATLSCRASQSVGSDYLAWYQQKPGQAPRLLIFAASTRATGIPDRFSGSGSATDFTLTISSLEPEDFAVYFCQQYASPPRTFGQGTKVEIKR
B5: the Kd worked out at 5.72 nM, the koff turned out to be 0.00103 s⁻¹ and the kon was 180000 M⁻¹ s⁻¹.

B6: M0132-D02 (Fab, V domains shown)
VH: EVQLLESGGGLVQPGGSLRLSCAASGFTFSHYPMDWVRQAPGKGLEWVSYIGPSGGSTRYADSVKGRFTISRDNSKNTLYLQMNSLRAEDTAVYYCARHVPPGTWGQGTLVTVSS
VL: AQSALTQPRSVSGSPGQSVTISCTGTSSDVNYVSWYQQHPGKAPKLMIYAVTKRPSGVPDRFSGSKSGNTASLTVSGLQAEDEADYYCSSYAGSNNLVFGGGTKLTVLG
For the molecule B6, the Kd worked out at 4.22 nM, the koff turned out to be 0.00303 s⁻¹ and the kon was found to be 717000 M⁻¹ s⁻¹.

B7: M0115-G12 (Fab, V domains shown)
VH: EVQLLESGGGLVQPGGSLRLSCAASGFTFSPYFMEWVRQAPGKGLEWVSGISSSGGNTLYADSVKGRFTISRDNSKNTLYLQMNSLRAEDTAVYYCARDRFGNYYGSGSKLQHDAFDIWGQGTMVTVSS
VL: DIQMTQSPVTLSLSPGDRATLSCRASQSVSFNLAWYQHKPGQAPRLLMFDASNRATGIPDRFSGSGSGTDFTLTIKRLEPEDFAVYYCQQYGTSPFTFGPGTNVDVKR
As for B7, the Kd is 5.73 nM, the koff turned out to be 0.000865 s⁻¹ and the kon came out at 151000 M⁻¹ s⁻¹.

B8: M0138-B10 (Fab, V domains shown)
VH: EVQLLESGGGLVQPGGSLRLSCAASGFTFSHYSMTWVRQAPGKGLEWVSRIYPSGGRTGYADSVKGRFTISRDNSKNTLYLQMNSLRAEDTAVYYCATDSGGYYYGMDVWGQGTTVTVSS
VL: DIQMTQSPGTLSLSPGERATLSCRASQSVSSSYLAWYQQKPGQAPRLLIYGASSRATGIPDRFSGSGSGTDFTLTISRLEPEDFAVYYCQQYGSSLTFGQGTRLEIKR
With B8, the Kd was found to be 3.36 nM, the koff worked out at 0.00089 s⁻¹ and the kon is 265000 M⁻¹ s⁻¹.

B9: M0138-C04 (Fab, V domains shown)
VH: EVQLLESGGGLVQPGGSLRLSCAASGFTFSHYHMQWVRQAPGKGLEWVSGIRSSGGVTGYSDSVKGRFTISRDNSKNTLYLQMNSLRAEDTAVYYCAREVTMVRGVYYYYYGMDVWGQGTTVTVSS
VL: AQYELTQPASVSGSPGQSITISCTGTSSDVGAYNYVSWYQHHPGKAPKLLIYDVSNRPSGISSRFSGSKSGNTASLTISGLQAEDEADYYCSSYTSSYTWVFGGGTKLTVLS
For B9, the Kd amounted to 4.26 nM, the koff came out at 0.000728 s⁻¹ and the kon worked out at 171000 M⁻¹ s⁻¹.

B10: M0104-H12 (Fab, V domains shown)
VH: EVQLLESGGGLVQPGGSLRLSCAASGFTFSYYQMSWVRQAPGKGLEWVSRIGPSGGLTSYADSVKGRFTISRDNSKNTLYLQMNSLRAEDTAVYYCARVGVWYGMDVWGQGTLVTVSS
VL: AQSELTQPPSASGSPGQSVTISCTGTSSDVGAYNYVSWYQQHPGKAPKLIIYEVNKRPSGVPDRFSASKSGNTASLTVSGLQAEDEADYYCNSYAGSNSLIFGGGTKLTVLG
For B10, the Kd worked out at 2.43 nM, the koff stood at 0.00138 s⁻¹ and the kon came out at 567000 M⁻¹ s⁻¹.

B11: M0111-C10 (Fab, V domains shown)
VH: B10 VH with Y31R, Q33V, R50S, G52R, P53S, L57R, S59M, L113T
VL: DIQMTQSPSSLSASVGDRVTITCRASQSISSYLNWYQQKPEKAPQLLIFAASSLQSGVPSRFSGSGSGTDFTLTISSLQPEDFATYYCQQSYNAPWTFGQGTKVEIRR
For the molecule B11, the Kd stood at 3.29 nM, the koff came to 0.00341 s⁻¹ and the kon was found to be 1.04e+06 M⁻¹ s⁻¹.

B12: M0135-F03 (Fab, V domains shown)
VH: B10 VH with Y31H, Q33V, S35I, R50W, G52Y, L57N, S59I, V93T, L113T
VL: DIQMTQSPATLSLSPGERATLSCRASQSVSSYLAWYQQKPGQAPRLLIYDASNRATGIPARFSGSGSGTDFTLTISSLEPEDFAVYYCQQRSNWPSPIAFGQGTRLEIKR
Regarding B12, the Kd was found to be 2.66 nM, the koff came out at 0.000625 s⁻¹ and the kon came to 235000 M⁻¹ s⁻¹.

B13: M0139-F09 (Fab, V domains shown)
VH: B10 VH with Y31H, Q33V, S35A, L57Y, S59M, L113T
VL: DIQMTQSPGTLSLSPGERATLSCRASQSVSSSYLAWYQQKPGQAPRLLIYGASSRATGIPDRFSGSGSGTDFTLTISSLQLEDFGTYFCQQSYRSPYTFGQGTKVDIKR
For B13, the Kd turned out to be 3.6 nM, the koff was determined as 0.00108 s⁻¹ and the kon was 301000 M⁻¹ s⁻¹.

B14: M0132-D08 (Fab, V domains shown)
VH: EVQLLESGGGLVQPGGSLRLSCAASGFTFSHYLMYWVRQAPGKGLEWVSWIGPSGGHTMYADSVKGRFTISRDNSKNTLYLQMNSLRAEDTAVYYCARLQQGLDYWGQGTLVTVSS
VL: DIQMTQSPSTLSASVGDRVTITCRASQSISNWLAWYQQKPGKAPKLLIYMASTLESGVPSRFSGSGSGTEFTLTISSLQPADFATYYCQQYNSYSVTFGGGTKVEIKR
On to B14, for which the Kd worked out at 4.73 nM, the koff is 0.000923 s⁻¹ and the kon was determined as 195000 M⁻¹ s⁻¹.

B15: M0126-F11 (Fab, V domains shown)
VH: B14 VH with L33W, Y35M, P53S, H57F, M59W, L99G, Q100N, Q101G, L103F, Y105S
VL: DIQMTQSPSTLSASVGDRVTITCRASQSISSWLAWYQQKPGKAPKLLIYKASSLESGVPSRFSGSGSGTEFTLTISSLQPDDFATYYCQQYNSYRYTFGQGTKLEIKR
Regarding B15, the Kd was 5.05 nM, the koff was 0.00144 s⁻¹ and the kon is 285000 M⁻¹ s⁻¹.

B16: M0128-E07 (Fab, V domains shown)
VH: B3 VH with H31F, V33P, R50Y, Y52W, Q57A, Y59R, A100N, W102G, P105S
VL: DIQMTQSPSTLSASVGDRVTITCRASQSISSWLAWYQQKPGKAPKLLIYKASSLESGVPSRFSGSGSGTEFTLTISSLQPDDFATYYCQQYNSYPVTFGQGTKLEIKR
In the case of B16, the Kd was determined as 30.4 nM, the koff was 0.0147 s⁻¹ and the kon worked out at 483000 M⁻¹ s⁻¹.

B17: M0121-A07 (Fab, V domains shown)
VH: EVQLLESGGGLVQPGGSLRLSCAASGFTFSHYLMYWVRQAPGKGLEWVSRIYPSGGATSYADSVKGRFTISRDNSKNTLYLQMNSLRAEDTAVYYCAKSGSWYSFDYWGQGTLVTVSS
VL: B13 VL with S32N, I49M, S54Y, L81P, G85A, F88Y, R94S, S95T, Y97W, D106E
On to B17, for which the Kd turned out to be 4.75 nM, the koff was determined as 0.00438 s⁻¹ and the kon was 922000 M⁻¹ s⁻¹.

B18: M0094-E08 (Fab, V domains shown)
VH: EVQLLESGGGLVQPGGSLRLSCAASGFTFSFYAMVWVRQAPGKGLEWVSYISPSGGATWYADSVKGRFTISRDNSKNTLYLQMNSLRAEDTAVYYCAKPSRPRYYYDSSGYYSSAFDIWGQGTMVTVSS
VL: AQSVLTQPASVSGSPGQSITISCTGTSSDVGAYNYVSWYQQHPGKVPELMIYDVSNRPSGVSHRFSGSKSGNTASLTISGLQAEDDADYYCSSFTSRKTWVFGTGTKVTVLG
Turning to B18, the Kd worked out at 3.34 nM, the koff stood at 0.00053 s⁻¹ and the kon was determined as 159000 M⁻¹ s⁻¹.

B19: M0097-F04 (Fab, V domains shown)
VH: EVQLLESGGGLVQPGGSLRLSCAASGFTFSPYQMWWVRQAPGKGLEWVSSISSSGGLTRYADSVKGRFTISRDNSKNTLYLQMNSLRAEDMAVYYCARVKLNYYGSGSYSLDAFDIWGQGTNGHRLKRLHQGPIGLPASTLLQEH
VL: AQYELTQPPSASGTPGQRVTISCSGSSSNIGSNYVHWYQQLPGTAPKLLIYRNNRRPSGVPDRFSGSKSGTSASLAISGLRSEDEADYYCAAWDDSLSGLVVFGGGTKLTVLGQPKAAP
With B19, the Kd came out at 3.26 nM, the koff stood at 0.000346 s⁻¹ and the kon came out at 106000 M⁻¹ s⁻¹.

B20: M0135-C12 (Fab, V domains shown)
VH: EVQLLESGGGLVQPGGSLRLSCAASGFTFSRYHMSWVRQAPGKGLEWVSSIRPSGGSTIYADSVKGRFTISRDNSKNTLYLQMNSLRAEDTAVYYCAREPRRYYYDSSGSYDAFDIWGQGTMVTVSS
VL: AQSELTQPPSMSGTPGQRVIISCSGSNSNIGNNFVYWYQQVAGSAPKLLIFRNNQRPSGVPDRFTVSKSGASASLAIGGLRSEDEADYYCAAWDDSLSGVLFGGGTKVTVLG
On to B20, for which the Kd is 3.1 nM, the koff came out at 0.000376 s⁻¹ and the kon amounted to 121000 M⁻¹ s⁻¹.

A word on the Kd: it is a measure of binding affinity in units of concentration. Broadly, the koff is the first-order rate constant of dissociation. As a reminder, the kon is the rate constant with which the complex forms.
